# Patent US20030068675, “Position dependent recognition of GNN nucleotide triplets by zinc fingers” (published 2003)
# T1: ZFP SBS#207 (synthetic)
# T1 chain: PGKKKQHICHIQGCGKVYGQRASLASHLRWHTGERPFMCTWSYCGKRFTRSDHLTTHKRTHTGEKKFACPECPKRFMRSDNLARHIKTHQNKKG
# T2: ZFP SBS#223 (synthetic)
# T2 chain: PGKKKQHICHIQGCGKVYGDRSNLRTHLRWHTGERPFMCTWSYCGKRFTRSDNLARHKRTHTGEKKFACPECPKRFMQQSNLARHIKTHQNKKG
# T3: ZFP SBS#238 (synthetic, UniProt P08047)
# T3 chain: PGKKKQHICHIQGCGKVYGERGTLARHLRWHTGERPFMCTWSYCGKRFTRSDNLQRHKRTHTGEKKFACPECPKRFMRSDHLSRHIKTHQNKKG
# T4: ZFP SBS#237 (synthetic, UniProt P08047)
# T4 chain: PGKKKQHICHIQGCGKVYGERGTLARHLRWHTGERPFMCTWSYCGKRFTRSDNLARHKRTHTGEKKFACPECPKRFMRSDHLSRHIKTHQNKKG
# T5: ZFP SBS#243 (synthetic)
# T5 chain: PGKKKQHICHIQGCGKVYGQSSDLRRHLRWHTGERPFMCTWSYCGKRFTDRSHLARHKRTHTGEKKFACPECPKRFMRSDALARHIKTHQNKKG
# T6: ZFP SBS#236 (synthetic, UniProt P08047)
# T6 chain: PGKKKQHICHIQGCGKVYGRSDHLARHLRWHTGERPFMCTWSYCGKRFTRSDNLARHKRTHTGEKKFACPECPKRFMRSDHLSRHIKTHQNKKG
# T7: ZFP SBS#283 (synthetic)
# T7 chain: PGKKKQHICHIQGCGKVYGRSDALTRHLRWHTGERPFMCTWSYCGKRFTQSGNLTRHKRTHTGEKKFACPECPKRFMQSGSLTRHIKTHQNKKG
# T8: ZFP SBS#269 (synthetic)
# T8 chain: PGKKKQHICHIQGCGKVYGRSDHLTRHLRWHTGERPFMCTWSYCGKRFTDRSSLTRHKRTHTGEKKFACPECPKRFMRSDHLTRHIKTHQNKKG
# T9: ZFP SBS#270 (synthetic)
# T9 chain: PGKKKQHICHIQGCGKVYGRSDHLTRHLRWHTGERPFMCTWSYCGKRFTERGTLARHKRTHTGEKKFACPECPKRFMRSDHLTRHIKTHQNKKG
# T10: ZFP SBS#225 (synthetic, UniProt P08047)
# T10 chain: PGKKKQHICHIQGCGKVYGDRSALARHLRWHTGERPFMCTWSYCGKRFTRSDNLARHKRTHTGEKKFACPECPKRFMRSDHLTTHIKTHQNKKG
# T11: ZFP SBS#264 (synthetic)
# T11 chain: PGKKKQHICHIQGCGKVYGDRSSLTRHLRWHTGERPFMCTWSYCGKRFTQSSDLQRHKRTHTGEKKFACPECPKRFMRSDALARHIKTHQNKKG
# T12: ZFP SBS#265 (synthetic)
# T12 chain: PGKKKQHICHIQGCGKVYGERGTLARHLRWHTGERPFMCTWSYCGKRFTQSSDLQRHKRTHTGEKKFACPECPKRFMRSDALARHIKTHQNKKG
# T13: ZFP SBS#235 (synthetic)
# T13 chain: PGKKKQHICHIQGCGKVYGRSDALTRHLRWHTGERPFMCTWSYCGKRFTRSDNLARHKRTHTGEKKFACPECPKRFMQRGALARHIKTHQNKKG
# T14: ZFP SBS#272 (synthetic)
# T14 chain: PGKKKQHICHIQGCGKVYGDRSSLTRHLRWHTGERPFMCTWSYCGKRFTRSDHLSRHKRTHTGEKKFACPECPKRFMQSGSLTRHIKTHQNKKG
# T15: ZFP SBS#250 (synthetic)
# T15 chain: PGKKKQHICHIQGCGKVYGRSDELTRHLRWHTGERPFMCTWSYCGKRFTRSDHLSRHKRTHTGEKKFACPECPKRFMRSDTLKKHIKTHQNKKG
# T16: ZFP SBS#293 (synthetic)
# T16 chain: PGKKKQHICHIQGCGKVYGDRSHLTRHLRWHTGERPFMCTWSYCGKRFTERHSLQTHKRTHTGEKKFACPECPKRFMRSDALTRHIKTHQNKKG
# T17: ZFP SBS#212 (synthetic)
# T17 chain: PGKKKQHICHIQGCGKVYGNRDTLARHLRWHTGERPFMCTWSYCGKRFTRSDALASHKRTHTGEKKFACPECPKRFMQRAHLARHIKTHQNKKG
# T18: ZFP SBS#210 (synthetic)
# T18 chain: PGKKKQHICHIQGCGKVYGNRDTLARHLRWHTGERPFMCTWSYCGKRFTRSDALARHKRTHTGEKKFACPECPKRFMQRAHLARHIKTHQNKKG
# T19: ZFP SBS#205 (synthetic)
# T19 chain: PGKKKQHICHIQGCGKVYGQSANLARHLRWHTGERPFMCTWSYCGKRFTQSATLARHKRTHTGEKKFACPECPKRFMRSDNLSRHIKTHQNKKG
# Columns and labels:
# Experiment in all cases: EMSA
# Settings in all cases: tags: MBP fusion
# [1] = target: T1, ZFP SBS#207
# Method: (§1) Affinity is measured by titrating purified protein against a fixed amount of labeled double-stranded oligonucleotide target. The target typically comprises the natural binding site sequence flanked by the 3 bp found in the natural sequence and additional, constant flanking sequences. The natural binding site is typically 9 bp for a three-finger protein and 2×9 bp +intervening bases for a six finger ZFP. […] For the assay the target is added at a concentration of 1 nM or lower (the actual concentration is kept at least 10-fold lower than the expected dissociation constant), purified ZFPs are added at various concentrations, and the reaction is allowed to equilibrate for at least 45 min. In addition the reaction mixture also contains 10 mM Tris (pH 7.5), 100 mM KCl, 1 mM MgCl2, 0.1 mM ZnCl2, 5 mM DTT, 10% glycerol, 0.02% BSA. (NB: in earlier assays poly d(IC) was also added at […].) The equilibrated reactions are loaded onto a 10% polyacrylamide gel, which has been pre-run for 45 min in Tris/glycine buffer, then bound and unbound labeled target is resolved by electrophoresis at 150V.
# [2] = target: T2, ZFP SBS#223
# Method: as §1
# [3] = target: ZFP SBS#239 (synthetic)
# Method: as §1
# [4] = target: T3, ZFP SBS#238
# Method: as §1
# [5] = target: T4, ZFP SBS#237
# Method: as §1
# [6] = target: T5, ZFP SBS#243
# Method: as §1
# [7] = target: ZFP SBS#233 (synthetic)
# Sequence of ZFP SBS#233 (synthetic) (chain, as listed by the source): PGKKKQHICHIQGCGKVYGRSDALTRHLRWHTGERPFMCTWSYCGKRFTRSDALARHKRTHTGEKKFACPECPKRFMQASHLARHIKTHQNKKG
# Method: as §1
# [8] = target: ZFP SBS#232 (synthetic)
# Method: as §1
# [9] = target: T6, ZFP SBS#236
# Method: as §1
# [10] = target: T7, ZFP SBS#283
# Method: as §1
# [11] = target: ZFP SBS#240 (synthetic)
# Sequence of ZFP SBS#240 (synthetic) (chain, as listed by the source): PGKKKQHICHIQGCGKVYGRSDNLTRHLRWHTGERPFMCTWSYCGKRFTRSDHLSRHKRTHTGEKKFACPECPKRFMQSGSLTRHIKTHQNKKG
# Method: as §1
# [12] = target: T8, ZFP SBS#269
# Method: as §1
# [13] = target: T9, ZFP SBS#270
# Method: as §1
# [14] = target: T10, ZFP SBS#225
# Method: as §1
# [15] = target: T11, ZFP SBS#264
# Method: as §1
# [16] = target: T12, ZFP SBS#265
# Method: as §1
# [17] = target: T13, ZFP SBS#235
# Method: as §1
# [18] = target: ZFP SBS#245 (synthetic)
# Sequence of ZFP SBS#245 (synthetic) (chain, as listed by the source): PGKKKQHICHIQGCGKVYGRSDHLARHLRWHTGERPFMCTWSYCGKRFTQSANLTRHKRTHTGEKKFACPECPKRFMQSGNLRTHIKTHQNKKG
# Method: as §1
# [19] = target: ZFP SBS#244 (synthetic)
# Method: as §1
# [20] = target: ZFP SBS#289 (synthetic)
# Sequence of ZFP SBS#289 (synthetic) (chain, as listed by the source): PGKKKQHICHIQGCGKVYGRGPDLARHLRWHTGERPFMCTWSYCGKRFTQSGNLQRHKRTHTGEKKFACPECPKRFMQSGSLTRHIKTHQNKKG
# Method: as §1
# [21] = target: T14, ZFP SBS#272
# Method: as §1
# [22] = target: ZFP SBS#249 (synthetic)
# Sequence of ZFP SBS#249 (synthetic) (chain, as listed by the source): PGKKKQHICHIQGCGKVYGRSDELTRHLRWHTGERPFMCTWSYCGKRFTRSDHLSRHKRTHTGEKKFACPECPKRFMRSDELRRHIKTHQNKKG
# Method: as §1
# [23] = target: T15, ZFP SBS#250
# Method: as §1
# [24] = target: T16, ZFP SBS#293
# Method: as §1
# [25] = target: ZFP SBS#242 (synthetic, UniProt P08047)
# Sequence of ZFP SBS#242 (P08047 other isoform, or with tags, fused parts or gaps): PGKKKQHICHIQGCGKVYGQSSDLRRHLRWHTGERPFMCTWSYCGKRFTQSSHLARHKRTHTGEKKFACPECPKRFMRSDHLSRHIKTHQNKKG
# Method: as §1
# [26] = target: ZFP SBS#217 (synthetic)
# Sequence of ZFP SBS#217 (synthetic) (chain, as listed by the source): as the sequence (P08047 other isoform, or with tags, fused parts or gaps) above, with S21R, D23A, R25A, Q50D, S51R, H53A, H81N, S83A counted along it
# Method: as §1
# [27] = target: ZFP SBS#209 (synthetic)
# Sequence of ZFP SBS#209 (synthetic) (chain, as listed by the source): as the sequence (P08047 other isoform, or with tags, fused parts or gaps) above, with D23A, R25A, Q50R, S52D, H53A, R78Q, S79R, D80A, S83A counted along it
# Method: as §1
# [28] = target: T17, ZFP SBS#212
# Method: as §1
# [29] = target: T18, ZFP SBS#210
# Method: as §1
# [30] = target: ZFP SBS#211 (synthetic)
# Sequence of ZFP SBS#211 (synthetic) (chain, as listed by the source): as the sequence (P08047 other isoform, or with tags, fused parts or gaps) above, with D23A, R25A, Q50R, S52D, H53A, R56S, R78Q, S79R, D80A, S83A counted along it
# Method: as §1
# [31] = target: T19, ZFP SBS#205
# Method: as §1
# [32] = target: ZFP SBS#247 (synthetic)
# Method: as §1
# [33] = target: ZFP SBS#246 (synthetic)
# Sequence of ZFP SBS#246 (synthetic) (chain, as listed by the source): as the sequence (P08047 other isoform, or with tags, fused parts or gaps) above, with Q20R, S22D, D23N, R25A, Q50R, S52D, R78Q, D80G, H81N, S83T counted along it
# Method: as §1
binder,measurement,setting,value
GAGTGGTTA (dsDNA) DNA 1: GAGTGGTTA DNA 2: TAACCACTC,Kd,[1],70 nM
GATGAGTAC (dsDNA) DNA 1: GATGAGTAC DNA 2: GTACTCATC,Kd,[2],105 nM
GGCGGGGAG (dsDNA) DNA 1: GGCGGGGAG DNA 2: CTCCCCGCC,Kd,[3],0.4 nM
GGGGAGGCC (dsDNA) DNA 1: GGGGAGGCC DNA 2: GGCCTCCCC,Kd,[4],0.8 nM
same,Kd,[5],0.3 nM
GTGGGCGCT (dsDNA) DNA 1: GTGGGCGCT DNA 2: AGCGCCCAC,Kd,[6],75 nM
GGTGTGGTG (dsDNA) DNA 1: GGTGTGGTG DNA 2: CACCACACC,Kd,[7],100 nM
same,Kd,[8],50 nM
GGGGAGGGG (dsDNA) DNA 1: GGGGAGGGG DNA 2: CCCCTCCCC,Kd,[9],0.3 nM
GCAGAAGTG (dsDNA) DNA 1: GCAGAAGTG DNA 2: CACTTCTGC,Kd,[10],2 nM
GCAGGGGAG (dsDNA) DNA 1: GCAGGGGAG DNA 2: CTCCCCTGC,Kd,[11],1 nM
GGGGCCGGG (dsDNA) DNA 1: GGGGCCGGG DNA 2: CCCGGCCCC,Kd,[12],5 nM
same,Kd,[13],52.5 nM
TGGGAGGTC (dsDNA) DNA 1: TGGGAGGTC DNA 2: GACCTCCCA,Kd,[14],6 nM
GTGGCTGCC (dsDNA) DNA 1: GTGGCTGCC DNA 2: GGCAGCCAC,Kd,[15],27 nM
same,Kd,[16],600 nM
GTAGAGGTG (dsDNA) DNA 1: GTAGAGGTG DNA 2: CACCTCTAC,Kd,[17],80 nM
TAAGAAGGG (dsDNA) DNA 1: TAAGAAGGG DNA 2: CCCTTCTTA,Kd,[18],235 nM
same,Kd,[19],100 nM
GCAGAAGCG (dsDNA) DNA 1: GCAGAAGCG DNA 2: CGCTTCTGC,Kd,[20],800 nM
GCAGGGGCC (dsDNA) DNA 1: GCAGGGGCC DNA 2: GGCCCCTGC,Kd,[21],20 nM
GCGGGGGCG (dsDNA) DNA 1: GCGGGGGCG DNA 2: CGCCCCCGC,Kd,[22],20 nM
same,Kd,[23],70 nM
GTGTGCGGC (dsDNA) DNA 1: GTGTGCGGC DNA 2: GCCGCACAC,Kd,[24],320 nM
GGGGGTGCT (dsDNA) DNA 1: GGGGGTGCT DNA 2: AGCACCCCC,Kd,[25],1 nM
GAGGTCGTA (dsDNA) DNA 1: GAGGTCGTA DNA 2: TACGACCTC,Kd,[26],40 nM
GGAGTGGTT (dsDNA) DNA 1: GGAGTGGTT DNA 2: AACCACTCC,Kd,[27],35 nM
same,Kd,[28],400 nM
same,Kd,[29],65 nM
same,Kd,[30],140 nM
GAGGTAGAA (dsDNA) DNA 1: GAGGTAGAA DNA 2: TTCTACCTC,Kd,[31],80 nM
GAAGGGGAG (dsDNA) DNA 1: GAAGGGGAG DNA 2: CTCCCCTTC,Kd,[32],2 nM
same,Kd,[33],2 nM
